Test results published in doi:10.1101/2020.10.14.340026 (bioRxiv, 2020).
Changes are numbered by the printed parent chain.

B1: BDBV-289 mAb (antibody, V domains shown)
VH: QVQLVQSGAEVKKPGSSVKVSCKASGATFGSDTVTWVRQAPGQGLEWMGGIIPFFGEANYAQRFQGRVTITADKSTNTAYMELSSLRSEDTAVYFCARQINEMATFGEIHYYTYMDVWGQGTLVTVSS
VL: GSELTQDPAVSVALGQTVRITCQGDSLRNYYASWYQQKPRQAPVLVFYGKNNRPSGIPDRFSGSSSGNTASLTISGAQAEDEADYYCNSRDSSSNHLVFGGGTKLTVL
notes: source: HEK-293F, transiently transfected, purified (mAb Select, SEC)
B2: BDBV-43 mAb (antibody, V domains shown)
VH: QVQLVQSGAEVKKPGSSVKVSCRASGDSFSRKYGISWVRQAPGQGFEWMGTIMPIVGLTTSAQKFQGRVTITADKSTSTAHMELNSLTSEDTAIYYCARDEIIGARPHWFDSWGQGTLVTVSS
VL: EIVMTQSPAIMSVSPGKRATLSCRASQSVSSNLAWYQRKPGQAPRLLIYGSSTRATGIPARFSGSGSGTEFTLTISSLQSEDFAVYYCLQYYNWPRTFGQGTKVEIK
notes: as for B1
B3: EBOV-437 mAb (antibody, V domains shown)
VH: QVQLVQSGAEVKKPGSSVKVSCKASGGTFSRDIFSWVRQAPGQGLEWMGGIIPIFGTANYAQKFQGRVTITADKSTSTVFMELSGLRSEDTAVYFCARGPPLRGERSWFGESEKYDYFYMDVWGKGTTVTVSS
VL: QIVLTQSPGTLSLSPGERATLSCRASQSVSNSYLAWYQQKPGQAPRLLIYGASSRATGIPDRFSGSGSGTDFTLSISRLEPEDFAVYYCQQYGTSPCTFGQGTKLEIK
notes: IgG1; source: ExpiCHO, transiently transfected, purified (HiTrap MabSelect Sure)
B4: EBOV-442 mAb (antibody, V domains shown)
VH: EVQLVESGGGLVKPGGSLRLSCTGSGGTGFTFKYAGMSWVRQAPGKGPEWIGRIKSRIDGGTTDYAAPVKDRFIVSRDDSRNTLYLQMNSLKTEDTAVYYCATGSGKGPSASFGESYYYYDFINVWGKGTTVTVSS
VL: ESVLTQSPGTLSLSPGERATLSCRASQSISRKYLAWYQQKPGQAPRLLIYGSSSRATGIPDRFSGSGSGTDFTLTISRLEPEDFAVYYCHQYESSPWTFGQGTKVEIK
notes: as for B3
B5: EBOV-293 mAb (antibody, V domains shown)
VH: QVQLVQSGAEVKKPGSSVKVSCKASGGTFIDYTYNWVRQAPGQGLVWMGRVVPGLGLSSYAQQFEDRVTITAAKSTSTVYMELRGLTSEDTAMYYCARDTASFGWLPFAFWGQGTLVTVSS
VL: QTVMTQSPGTLSLSPGERATLSCGVSQSISSTYFAWYQQKVGQAPRLLIYGASNRASGIPDRFSGSASGTDFTLTISRVEPEDFAVYYCQQYGSSPTFGQGTRLEIK
B6: EBOV-296 mAb (antibody, V domains shown)
VH: QVQLVESGPGLVKPSQTLSLICTVSGGSISSGDFYWSWIRQPPGKGLEWIGFFYYSGITYYNPSLKSRVSISRDTSTNQFSLKLRSVTAADTAVYYCARVRGGRITLGQGDMYYYSGMDVWGQGTLVTVSS
VL: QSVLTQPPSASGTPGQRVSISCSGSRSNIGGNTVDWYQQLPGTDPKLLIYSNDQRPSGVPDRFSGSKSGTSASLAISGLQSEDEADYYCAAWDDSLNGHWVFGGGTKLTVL
B7: BDBV-329 mAb (antibody, V domains shown)
VH: QVQLVQSGAEVKKPGSSVKVSCKASGGTFDTYAISWVRQAPGQGLEWMGGIIPVLGIVDYAQKFQGRVTITAAKFTNIAYMELSSLRSEDAAVYYCARGLRSLSPRGQEGPTPAPGWRRAQYHYYYMDVWGTGTLVTVSS
VL: B3 VL with Q1E, L4M, N31S, S32N, T70P, S75T, T94S, C97G, Q101G, L105V
notes: as for B3
B8: EBOV-237 mAb (antibody, V domains shown)
VH: QVQLQESGPGLVKPSGTLSLTCAVSGGSISNGIWWSWVRQPPGKGLEWIGEIYHSGSTNYSPSLKSRVTISLDKSKNQFSLKLNSVTAADTAVYYCARAPSQFDFSDWLVPQGAMFRGHYIDYWGQGTLVTVSS
VL: not shown
notes: as for B3
B9: EBOV-548 mAb (antibody, V domains shown)
VH: QVQVEESGGGVVQPGGSLRLSCAASGFMFSNYGMHWVRQAPGKGLEWMAFIRYDDSKKFYADSVKGRFTISRDNSKNTLYLQMNSLRAEDTALYYCAKELLQVYTSAWGEGHSYYYALDVWGLGTAVTVSS
VL: DIQMTQSPSSVSASVGDRVTITCRASQDISNWLAWYQQKPGKAPELLIYTASILQSGVSSRFSGSGSGTDFTLTISSLQPEDSATYYCQQGKSFPYTFGQGTKLEIK
B10: EBOV-515 mAb, Alexa Fluor 647-labeled (antibody, V domains shown)
VH: QVQLQESGPGLVKPSQTLSLTCTVSGGSINSAGYYWTWIRQHPGKGLEWIGYIDYTGRTYYNPSLESRVIISIDTSKNHFSLRLTSVSAADTAVYYCARESSWVSELGRDNWGQGTLVTVSS
VL: EIVMTQSPATLPVSPGEGATLSCRASQSVFTNLAWYQQKPGQAPRLLIYDASTRATGIPARFSGSGSGTEFTLTISSLQSEDFAVYYCQQYNNWPRTYGQGTRVEVK

molecular target: T1, EBOV sGP (Mayinga) (Zaire ebolavirus (strain Mayinga-76) …, UniProt P60170); assay: ELISA; conditions: both partners purified
T1 construct: source: HEK-293F, transiently transfected, purified (Strep-Tactin, SEC S200 increase)

| Binder | binding result |
| --- | --- |
| B1 | binds |
| B2 | binds |
| B3 | binds |
| B4 | binds |
| B5 | binds |
| B6 | binds |
| B7 | binds |
| B8 | binds |
| B9 | binds |

molecular target: Cleaved EBOV GP (GPCL) displayed on Jurkat cells (Zaire ebolavirus, Makona (A0A0E3TM45), UniProt A0A0E3TM45, strain); assay: flow cytometry on cells; conditions: one partner purified

| Binder | binding result |
| --- | --- |
| B4 | binds |
| B10 | binds |
